The results in this text go back to paper PMC9122601, “A widespread family of WYL-domain transcriptional regulators co-localizes with diverse phage defence systems and islands”.

For the series, the target named is T1, His6-BrxR-R17A (Escherichia fergusonii (plasmid pEFER), UniProt B7L3Y3 14-308, R30A).
T1 sequence: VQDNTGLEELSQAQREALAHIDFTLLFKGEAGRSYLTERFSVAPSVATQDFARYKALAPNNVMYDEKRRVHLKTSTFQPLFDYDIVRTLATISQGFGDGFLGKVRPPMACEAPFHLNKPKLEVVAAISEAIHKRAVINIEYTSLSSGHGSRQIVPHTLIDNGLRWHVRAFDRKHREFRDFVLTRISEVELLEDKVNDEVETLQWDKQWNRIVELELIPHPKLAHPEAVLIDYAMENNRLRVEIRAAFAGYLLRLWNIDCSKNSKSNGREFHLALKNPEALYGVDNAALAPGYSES
Nature of the series: EMSA; only non-specific binding at high protein; EMSA: 10 mM Tris-HCl pH 7.9, 150 mM KCl, 0.5 mM EDTA, 0.2 mM DTT, 0.1% Triton X-100, 13% glycerol (1x of 5x buffer), 1 ug poly(dI-dC) per 10 ul, 2500 fmol probe, 25 C 30 min; 7% native PAGE in 0.5x TBE. To be noted: protein: recombinant; tags: N-terminal His6; chain copies: 2; label: 5' 6-FAM on reverse strand (primer TRB1068); blunt. (A gel shift assay detects complexes by their altered migration in electrophoresis.)

B1: WT IR1-IR2 probe (R7, R-BOX1) (dsDNA)
DNA 1: GACGACTTGTTGATACTATGAAACCTACTGAAAAACAGTAGGTTGCTTGATGGCATTCAATCGATGGCTTAAGCTTTTGTCAGTGCGCA
DNA 2: TGCGCACTGACAAAAGCTTAAGCCATCGATTGAATGCCATCAAGCAACCTACTGTTTTTCAGTAGGTTTCATAGTATCAACAAGTCGTC
As to B1, the binding result was “no binding”.
